Source: patent publication US20250011363A1, “OPTIMIZED SHORTENED PEPTIDE THAT BINDS TO ACETYLCHOLINE RECEPTOR, AND USE THEREOF” (SKINMED CO., LTD., priority 2021, published 2025)

Target: acetylcholine receptor (Homo sapiens, UniProt P02708)
Test: SPR binding affinity (RU) of optimized 5mer/6mer/7mer peptides, Examples 6-7
Settings: SPR, Resonance Units; peptides tested at 10 μM; 6mer-2 Bottom sequence
Summary of the method: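 SPR, peptides at 10 μM; read-out = response units (RU). Sequences drawn from top- or bottom-frequency amino acid combinations, 5mer/6mer-1/6mer-2 libraries.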

Sequence of acetylcholine receptor (P02708 21-457): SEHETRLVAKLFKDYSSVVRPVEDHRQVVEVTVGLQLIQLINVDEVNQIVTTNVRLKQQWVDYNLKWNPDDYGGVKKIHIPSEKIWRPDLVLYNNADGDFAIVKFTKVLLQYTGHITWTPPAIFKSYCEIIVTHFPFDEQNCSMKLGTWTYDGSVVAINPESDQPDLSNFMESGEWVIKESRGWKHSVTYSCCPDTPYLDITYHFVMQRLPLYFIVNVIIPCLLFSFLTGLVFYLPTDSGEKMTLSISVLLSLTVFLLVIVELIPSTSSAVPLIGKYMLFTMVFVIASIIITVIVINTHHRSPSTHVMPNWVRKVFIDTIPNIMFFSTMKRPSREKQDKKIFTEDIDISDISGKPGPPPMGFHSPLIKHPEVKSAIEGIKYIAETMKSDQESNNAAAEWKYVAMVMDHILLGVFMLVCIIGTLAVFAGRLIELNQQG

Substance | Binding affinity
6mer-2-601 (KNSHKK) | 25 Ru
6mer-2-602 (RNTPKR) | 24 Ru
6mer-2-603 (KFHARR) | 32 Ru
6mer-2-604 (KEPIRK) | 16 Ru
6mer-2-605 (KNCGKK) | 17 Ru
6mer-2-606 (RKPFRR) | 15 Ru
6mer-2-607 (KKWVKR) | 31 Ru
6mer-2-608 (RCNHKK) | 32 Ru
6mer-2-609 (RDSDRR) | 24 Ru
6mer-2-610 (RKNPKR) | 32 Ru
6mer-2-611 (RIKMRR) | 22 Ru
6mer-2-612 (RDCVRK) | 17 Ru
6mer-2-613 (KAANRR) | 18 Ru
6mer-2-614 (KAWIRR) | 19 Ru
6mer-2-615 (KDNGRK) | 27 Ru
6mer-2-616 (REPHRK) | 26 Ru
6mer-2-617 (RCNGRR) | 32 Ru
6mer-2-618 (KHHKKR) | 12 Ru

Substance | Binding affinity
6mer-2-619 (RPPDRR) | 26 Ru
6mer-2-620 (RHTGRR) | 33 Ru
6mer-2-621 (RHEPKR) | 32 Ru
6mer-2-622 (RYTNKR) | 13 Ru
6mer-2-623 (KHAHRR) | 13 Ru
6mer-2-624 (KPPIRK) | 33 Ru
6mer-2-625 (RFPDKK) | 33 Ru
6mer-2-626 (KNSEKK) | 33 Ru
6mer-2-627 (KKTARR) | 33 Ru
6mer-2-628 (RKSFKR) | 30 Ru
6mer-2-629 (RFCWKK) | 32 Ru
6mer-2-630 (RYAFRR) | 27 Ru
6mer-2-631 (KYCMKR) | 16 Ru
6mer-2-632 (KYDIKR) | 12 Ru
6mer-2-633 (KYAVKR) | 17 Ru
6mer-2-634 (RYEHRK) | 33 Ru
6mer-2-635 (KECVRR) | 11 Ru

Same assay, conditions: SPR, Resonance Units; peptides tested at 10 μM; 6mer-2 Top sequence

Substance | Binding affinity
6mer-2-477 (RSRTRR) | 135 Ru
6mer-2-478 (KWYTRK) | 145 Ru
6mer-2-479 (KWRLKK) | 154 Ru
6mer-2-480 (RRFTKK) | 147 Ru
6mer-2-481 (RQRYKK) | 131 Ru
6mer-2-482 (KGQTRR) | 154 Ru
6mer-2-483 (RRYLKK) | 121 Ru
6mer-2-484 (RWYTKR) | 148 Ru
6mer-2-485 (RQIQKR) | 148 Ru
6mer-2-486 (KQQSKK) | 121 Ru
6mer-2-487 (KSYTKR) | 121 Ru
6mer-2-488 (KVYRRK) | 146 Ru
6mer-2-489 (RVISKK) | 142 Ru
6mer-2-490 (RRYQKK) | 145 Ru
6mer-2-491 (KRICKR) | 135 Ru
6mer-2-492 (RLIQKK) | 148 Ru
6mer-2-493 (KGVRRK) | 123 Ru
6mer-2-494 (KGLLRR) | 144 Ru
6mer-2-495 (KLLCKK) | 121 Ru
6mer-2-496 (RVRYRK) | 144 Ru
6mer-2-497 (KSYTRR) | 148 Ru
6mer-2-498 (KGLCRR) | 127 Ru
6mer-2-499 (RLFTKR) | 145 Ru
6mer-2-500 (KRICRR) | 146 Ru
6mer-2-501 (KSYSKK) | 144 Ru

Substance | Binding affinity
6mer-2-502 (KSFCKR) | 144 Ru
6mer-2-503 (KVQTKK) | 154 Ru
6mer-2-504 (RGLTRK) | 154 Ru
6mer-2-505 (KRQCKK) | 148 Ru
6mer-2-506 (KSLLKK) | 135 Ru
6mer-2-507 (RGICKR) | 145 Ru
6mer-2-508 (RVFLKK) | 121 Ru
6mer-2-509 (RGFYRK) | 136 Ru
6mer-2-510 (KRVLKK) | 146 Ru
6mer-2-511 (RVFCRR) | 126 Ru
6mer-2-512 (RWFTRR) | 148 Ru
6mer-2-513 (RRLTRK) | 121 Ru
6mer-2-514 (KGLQKK) | 124 Ru
6mer-2-515 (RWYCRK) | 123 Ru
6mer-2-516 (RQQQKK) | 146 Ru
6mer-2-517 (KLRTKK) | 153 Ru
6mer-2-518 (KLVTKK) | 151 Ru
6mer-2-519 (KQIQRR) | 135 Ru
6mer-2-520 (KSYCKR) | 144 Ru
6mer-2-521 (KQYTRK) | 144 Ru
6mer-2-522 (RVVLRK) | 124 Ru
6mer-2-523 (RGRYKR) | 146 Ru
6mer-2-524 (RGIQKR) | 128 Ru
6mer-2-525 (KWVRKK) | 145 Ru
6mer-2-526 (RVLLRK) | 144 Ru

Substance | Binding affinity
6mer-2-527 (RGQTRR) | 145 Ru
6mer-2-528 (KGFRKK) | 151 Ru
6mer-2-529 (KQQRKR) | 124 Ru
6mer-2-530 (RSYSKR) | 139 Ru
6mer-2-531 (KVIYKR) | 148 Ru
6mer-2-532 (KSITKR) | 147 Ru
6mer-2-533 (KRLLKR) | 142 Ru
6mer-2-534 (RVQLRR) | 139 Ru
6mer-2-535 (KLFCRR) | 133 Ru
6mer-2-536 (RWQRKK) | 125 Ru
6mer-2-537 (KVLCKR) | 153 Ru
6mer-2-538 (KQFCKK) | 125 Ru
6mer-2-539 (KWYTKK) | 127 Ru
6mer-2-540 (KRLTRR) | 142 Ru
6mer-2-541 (KGQCRK) | 126 Ru
6mer-2-542 (RQIYRR) | 148 Ru
6mer-2-543 (RRQYRR) | 144 Ru
6mer-2-544 (KVIQKR) | 147 Ru
6mer-2-545 (KLYCRK) | 125 Ru
6mer-2-546 (RVFTKK) | 127 Ru
6mer-2-547 (RWQCKR) | 135 Ru
6mer-2-548 (RLQCRR) | 142 Ru
6mer-2-549 (KQLCKK) | 142 Ru
6mer-2-550 (RSFTKK) | 148 Ru
6mer-2-551 (KWYTKR) | 141 Ru

Substance | Binding affinity
6mer-2-552 (RGLLRR) | 148 Ru
6mer-2-553 (RSLQKK) | 124 Ru
6mer-2-554 (RWRCRR) | 121 Ru
6mer-2-555 (RSVSKK) | 154 Ru
6mer-2-556 (RSICKK) | 148 Ru
6mer-2-557 (KWVLRK) | 123 Ru
6mer-2-558 (KSVCKK) | 154 Ru
6mer-2-559 (KGQLRR) | 121 Ru
6mer-2-560 (RQYTRR) | 153 Ru
6mer-2-561 (RRVLKK) | 142 Ru
6mer-2-562 (RQQRKR) | 136 Ru
6mer-2-563 (KGYQKR) | 131 Ru
6mer-2-564 (KQVYRK) | 148 Ru
6mer-2-565 (KSRRRR) | 147 Ru
6mer-2-566 (KRLSKK) | 139 Ru
6mer-2-567 (KLYYRK) | 146 Ru
6mer-2-568 (KGFQKK) | 142 Ru
6mer-2-569 (RWQLRK) | 135 Ru
6mer-2-570 (RVYYKR) | 148 Ru
6mer-2-571 (RGYQRR) | 135 Ru
6mer-2-572 (KSQRRK) | 148 Ru
6mer-2-573 (KLYLRR) | 121 Ru
6mer-2-574 (KGVYRK) | 153 Ru
6mer-2-575 (RGYSRK) | 139 Ru
6mer-2-576 (KGVSRR) | 139 Ru

Substance | Binding affinity
6mer-2-577 (KRVQRR) | 139 Ru
6mer-2-578 (RSVLRK) | 135 Ru
6mer-2-579 (RWQYRK) | 135 Ru
6mer-2-580 (KWQQRR) | 121 Ru
6mer-2-581 (RVQQKR) | 139 Ru
6mer-2-582 (RWQTRK) | 148 Ru
6mer-2-583 (KSVTKK) | 154 Ru
6mer-2-584 (KRLTRK) | 148 Ru
6mer-2-585 (RSFRRK) | 136 Ru
6mer-2-586 (RWLSRK) | 121 Ru
6mer-2-587 (KRISKR) | 148 Ru
6mer-2-588 (KWFYKK) | 149 Ru
6mer-2-589 (RWQQRK) | 153 Ru
6mer-2-590 (KGRLRK) | 148 Ru
6mer-2-591 (KGILRR) | 146 Ru
6mer-2-592 (RWVLRK) | 122 Ru
6mer-2-593 (RSQLKR) | 139 Ru
6mer-2-594 (RWYRRR) | 139 Ru
6mer-2-595 (KLRCKK) | 154 Ru
6mer-2-596 (KGIQKK) | 153 Ru
6mer-2-597 (KQFLRK) | 154 Ru
6mer-2-598 (KVFRRR) | 146 Ru
6mer-2-599 (RRRYRK) | 121 Ru
6mer-2-600 (RSQLKK) | 139 Ru
